From US10487147B2, “Anti-PD-L1 antibodies and uses thereof” (Merck Patent GmbH, priority 2011, dated 2019)

system: not listed separately; assay: Analytical size exclusion chromatography of wild type and mutant PD-L1 proteins; assay type: physicochemical; conditions: qualitative appearance of the PD-L1 antigen protein on size exclusion chromatography

Row | Compound | SEC
1 | V68R: PD-L1 point mutant antigen expressed in HEK cells [Antibody V68R] | M/T
2 | Q107A: PD-L1 point mutant antigen expressed in HEK cells [Antibody Q107A] | M/T

system: not listed separately; assay: Fluorescence monitored thermal unfolding assay of wild type and mutant PD-L1 proteins; assay type: physicochemical; conditions: temperature midpoint of fluorescently monitored thermal denaturation of the PD-L1 antigen protein
Description: As the temperature increases, thermal denaturation of the protein exposes the hydrophobic core residues and this can be monitored by an increase in fluorescence of the dye. […] The data ware fit to equation 1 (adapted from Bullock, A. N. et al. Thermodynamic stability of wild-type and mutant p53 core domain. PNAS 94, 14338-14342 (1997)) to determine the temperature at the inflection point of the curve (T1/2).

Row | Compound | T1/2
3 | K46A: PD-L1 point mutant antigen expressed in HEK cells [Antibody K46A] | 51.6 °C
4 | D73A: PD-L1 point mutant antigen expressed in HEK cells [Antibody D73A] | 53.5 +/− 2.1 °C
5 | V68R: PD-L1 point mutant antigen expressed in HEK cells [Antibody V68R] | 56.0 °C
6 | M115A: PD-L1 point mutant antigen expressed in HEK cells [Antibody M115A] | 51.4 +/− 0.1 °C
7 | E60A: PD-L1 point mutant antigen expressed in HEK cells [Antibody E60A] | 50.4 °C
8 | D61A: PD-L1 point mutant antigen expressed in HEK cells [Antibody D61A] | 52.0 °C
9 | E45A: PD-L1 point mutant antigen expressed in HEK cells [Antibody E45A] | 58.0 °C
10 | A52R: PD-L1 point mutant antigen expressed in HEK cells [Antibody A52R] | 55.2 °C
11 | K129A: PD-L1 point mutant antigen expressed in HEK cells [Antibody K129A] | 50.8 +/− 1.2 °C
12 | S80E: PD-L1 point mutant antigen expressed in HEK cells [Antibody S80E] | 56.8 +/− 4.5 °C
13 | R82A: PD-L1 point mutant antigen expressed in HEK cells [Antibody R82A] | 51.2 +/− 0.4 °C
14 | I54K: PD-L1 point mutant antigen expressed in HEK cells [Antibody I54K] | 57.2 °C
15 | K124A: PD-L1 point mutant antigen expressed in HEK cells [Antibody K124A] | 53.1 +/− 0.6 °C
16 | Q107A: PD-L1 point mutant antigen expressed in HEK cells [Antibody Q107A] | 58.6 +/− 2.0 °C
17 | Y56A: PD-L1 point mutant antigen expressed in HEK cells [Antibody Y56A] | 57.5 +/− 0.7 °C
18 | V76A: PD-L1 point mutant antigen expressed in HEK cells [Antibody V76A] | 55.7 °C
19 | A121R: PD-L1 point mutant antigen expressed in HEK cells [Antibody A121R] | 54.0 +/− 0.5 °C
20 | V111A: PD-L1 point mutant antigen expressed in HEK cells [Antibody V111A] | 50.2 +/− 0.2 °C
21 | E58A: PD-L1 point mutant antigen expressed in HEK cells [Antibody E58A] | 54.6 +/− 0.6 °C
22 | T127K: PD-L1 point mutant antigen expressed in HEK cells [Antibody T127K] | 54.0 °C

Row | Compound | T1/2
23 | D49A: PD-L1 point mutant antigen expressed in HEK cells [Antibody D49A] | BP (>49) ° C.
24 | K105A: PD-L1 point mutant antigen expressed in HEK cells [Antibody K105A] | 57.0 +/− 1.5 °C
25 | Y56K: PD-L1 point mutant antigen expressed in HEK cells [Antibody Y56K] | 55.4 +/− 1.3 °C
26 | A51Q: PD-L1 point mutant antigen expressed in HEK cells [Antibody A51Q] | 57.3 +/− 0.6 °C
27 | S80A: PD-L1 point mutant antigen expressed in HEK cells [Antibody S80A] | 57.0 °C
28 | D26A: PD-L1 point mutant antigen expressed in HEK cells [Antibody D26A] | 52.8 +/− 0.2 °C
29 | K75A: PD-L1 point mutant antigen expressed in HEK cells [Antibody K75A] | 57.7 +/− 1.8 °C
30 | S79E: PD-L1 point mutant antigen expressed in HEK cells [Antibody S79E] | 60.0 °C
31 | R113A: PD-L1 point mutant antigen expressed in HEK cells [Antibody R113A] | 56.7 °C
32 | A109E: PD-L1 point mutant antigen expressed in HEK cells [Antibody A109E] | 54.0 °C
33 | T127A: PD-L1 point mutant antigen expressed in HEK cells [Antibody T127A] | 51.4 +/− 0.0 °C
34 | T20A: PD-L1 point mutant antigen expressed in HEK cells [Antibody T20A] | 52.5 +/− 0.2 °C
35 | V111E: PD-L1 point mutant antigen expressed in HEK cells [Antibody V111E] | 51.6 +/− 0.0 °C
36 | I54A: PD-L1 point mutant antigen expressed in HEK cells [Antibody I54A] | 57.2 +/− 2.5 °C
37 | S79A: PD-L1 point mutant antigen expressed in HEK cells [Antibody S79A] | 56.3 +/− 0.9 °C
38 | E71A: PD-L1 point mutant antigen expressed in HEK cells [Antibody E71A] | 52.8 +/− 1.5 °C
39 | H78A: PD-L1 point mutant antigen expressed in HEK cells [Antibody H78A] | 56.6 +/− 0.6 °C
40 | L27A: PD-L1 point mutant antigen expressed in HEK cells [Antibody L27A] | 51.7 +/− 0.5 °C
41 | R125A: PD-L1 point mutant antigen expressed in HEK cells [Antibody R125A] | 51.8 +/− 0.2 °C
42 | S117A: PD-L1 point mutant antigen expressed in HEK cells [Antibody S117A] | 52.7 +/− 0.3 °C

system: PANC02 cells; assay: Combination with Gemcitabine in the PANC02 orthotopic model; conditions: GEM 150 mg/kg or A09-246-2 400 μg per mouse alone

Row | Compound | survival time, monotherapy
43 | Nc1ccn([C@@H]2O[C@H](CO)[C@@H](O)C2(F)F)c(=O)n1 [GEM, Gemcitabine] | failed to extend survival time

system: MC38 colon carcinoma cells; assay: Combination with low dose cyclophosphamide in MC38 subcutaneous tumor model; assay type: in vivo, mice; conditions: CPA 100 mg/kg or A09-246-2 100 μg
Experimental: Low-dose CPA is known to enhance anti-tumor immune responses through the inhibition of immunosuppressive regulatory T cells. […] Mice were inoculated […] in the right flank with 1×10^6 MC38 colon carcinoma cells. When tumors reached a mean volume of ˜50 mm^3, mice were sorted into treatment groups (N=14) on day 0. […] Using an ELISPOT assay, the effects of treatment on the magnitude of CD8^+ T cell responses directed against the well-characterized p15E tumor antigen were measured.

Row | Compound | p15E-reactive CD8+ T cells (ELISPOT), single agent
44 | O=P1(N(CCCl)CCCl)NCCCO1 (centres unmarked) [CPA, cyclophosphamide] | ~100 spots
